The subject of test [1] is CHO-K1 human α11-mediated rat tail type I collagen gel contraction. In words: Collagen gel contraction assay. It is filed as cell-based. The settings on record: compared to untreated condition. The protocol: 24-well plates were blocked with 2% BSA in PBS overnight at 37° C. The following day, the plates were washed 3 times with PBS before being used in the assay. Human CHO cell lines expressing α11 were harvested and resuspended at 1.25×10^6 in ExpiCHO Expression Medium (Gibco™ Cat #A2910002). The collagen gel solution was prepared by diluting 3 mg/mL stock collagen type I (Gibco™ Collagen I Rat Protein, Tail Cat #A1048301) to 1 mg/mL in the media containing the CHO cells. Sodium hydroxide was added to the solution to neutralize the pH and 400 μL of the collagen solution was added to each well of the 24-well plates. For the wells where the antibodies were included in the collagen gel solution, CHO cells were prepared at 2.5×10^6 and the antibodies were prepared at 2× final concentration in ExpiCHO media. The cells and antibodies were then combined 1:1 before the addition of the stock collagen type 1. The gels were allowed to polymerize for 60 minutes at 37° C. Antibodies were added to the ExpiCHO media, which was then layered on top of the polymerized gel (400 μL/well). The gels were incubated for 6 days at 37° C. before gel contraction was quantified. Images of each well were analyzed using Image J and gel contraction was determined as a percentage of the initial gel area.
Selected exemplary antibodies were tested for the ability to inhibit cell-mediated 3D gel contraction because this ability is directly linked to the functionality of the exemplary antibodies.

The target in test [2] is T1, α11β1 I Domain (Homo sapiens, UniProt Q9UKX5).
T1 sequence (Q9UKX5 164-345 limits assumed): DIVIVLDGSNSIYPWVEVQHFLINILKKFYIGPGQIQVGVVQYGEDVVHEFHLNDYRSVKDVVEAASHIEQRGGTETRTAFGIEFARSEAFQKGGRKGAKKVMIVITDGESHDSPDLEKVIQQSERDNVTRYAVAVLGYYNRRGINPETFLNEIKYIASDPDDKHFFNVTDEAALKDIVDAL
In words: ELISA binding to in-house generated α11β1 I domain. The settings on record: in words. Also noted: An in-house generated I domain of α11β1 was used; made in house. The protocol: 0.25 μg/mL of target antigen (recombinant human or mouse α11β1) was plated in a 96-well plate over night at 4° C. Plates were washed (PBS with 0.1% Tween-20), blocked (PBS with 2% BSA and 0.05% Tween-20) for 1 hour at room temperature and incubated with a range of antibody concentrations for 1 hour at room temperature. Subsequently, plates were washed and incubated with biotinylated anti-rabbit/mouse/human IgG in a 1:1000 dilution buffer and incubated for 1 hour at room temperature. After washing the plates, Streptavidin HRP was added at 1:200 in dilution buffer and incubated for 1 hour at room temperature. Ultra TMB ELISA substrate solution was added and the plates incubated for 5 minutes on a plate shaker. The reaction was stopped by adding stop solution to each well and plates were read at 450 nm.
Data was also collected to determine whether antibodies of interest bind to the I domain of α11β1. An in-house generated I domain of α11β1 was used. […] Mouse antibodies 10-F23, 10-L15, 7-O8, 6-A12, 9-G05 and 9-E16 and rabbit antibodies 7-H12 and 2-D3 were also tested for binding against the in-house generated α11β1 I domain. FIGS. 3A and 3B show graphs illustrating binding data from exemplary mAbs.
For orientation: In an ELISA, binding on a coated surface is turned into a signal by an enzyme label.

The target of test [3] is T2, adhesion of CHO-K1 cells expressing human α11 to rat tail type I collagen (Homo sapiens, UniProt Q9UKX5).
T2 construct: expressed in transfected cells; host or cells: CHO-K1
T2 sequence (Q9UKX5 23-1188): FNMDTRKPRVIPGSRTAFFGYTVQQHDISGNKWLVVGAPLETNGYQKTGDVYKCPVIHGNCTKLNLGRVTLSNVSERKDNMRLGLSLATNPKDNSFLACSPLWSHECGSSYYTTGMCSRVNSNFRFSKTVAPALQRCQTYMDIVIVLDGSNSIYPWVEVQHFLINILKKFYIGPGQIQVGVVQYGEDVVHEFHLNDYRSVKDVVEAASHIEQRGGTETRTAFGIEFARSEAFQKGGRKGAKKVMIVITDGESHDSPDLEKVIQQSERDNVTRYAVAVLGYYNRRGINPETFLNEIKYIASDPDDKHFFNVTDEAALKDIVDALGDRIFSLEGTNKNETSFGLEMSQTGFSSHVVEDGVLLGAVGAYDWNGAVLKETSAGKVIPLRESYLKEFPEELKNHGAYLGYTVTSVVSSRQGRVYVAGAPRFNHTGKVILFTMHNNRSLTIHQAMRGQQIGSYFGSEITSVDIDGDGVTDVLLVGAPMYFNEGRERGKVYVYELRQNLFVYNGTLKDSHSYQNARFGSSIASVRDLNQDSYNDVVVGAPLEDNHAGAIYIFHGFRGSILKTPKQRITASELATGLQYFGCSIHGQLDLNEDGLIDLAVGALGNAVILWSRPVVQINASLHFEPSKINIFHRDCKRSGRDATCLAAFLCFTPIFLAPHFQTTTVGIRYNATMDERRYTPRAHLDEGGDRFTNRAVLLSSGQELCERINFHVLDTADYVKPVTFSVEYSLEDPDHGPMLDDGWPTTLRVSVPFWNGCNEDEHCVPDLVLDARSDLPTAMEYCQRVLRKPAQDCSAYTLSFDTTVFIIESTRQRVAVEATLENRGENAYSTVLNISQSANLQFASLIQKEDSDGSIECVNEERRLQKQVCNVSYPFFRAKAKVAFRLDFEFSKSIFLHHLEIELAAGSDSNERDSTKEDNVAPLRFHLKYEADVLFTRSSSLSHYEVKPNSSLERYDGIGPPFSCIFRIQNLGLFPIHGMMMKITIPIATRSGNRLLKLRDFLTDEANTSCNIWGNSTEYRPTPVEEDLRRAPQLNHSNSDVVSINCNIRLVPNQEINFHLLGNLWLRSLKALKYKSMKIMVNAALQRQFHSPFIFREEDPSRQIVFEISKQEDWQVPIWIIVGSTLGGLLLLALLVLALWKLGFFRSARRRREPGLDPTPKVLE
In words: Cell adhesion inhibition (CHO-K1 hu α11 cells to type I collagen, xCelligence). It counts as cell-based. The settings on record: in words. The protocol:
0.6×10^6 cells/mL were incubated with each antibody at a range of concentrations for 20 minutes at 37° C. E-Plate VIEW 96 PET plate coated with 100 ng/ml type I collagen or PBS overnight at room temperature was blocked in 3% BSA for 1 house at room temperature. After washing the plate with PBS, cell and antibody mixture was added to the wells and the plate was places into an xCelligence machine. Cell adhesion was recorded over 6 hours. The time point of maximum cell adhesion was used for comparison relative to control.
A CHO-K1 hu α11 cell line was used to assess the ability of mAbs to block α11β1-mediated binding to type I collagen. […] In the “Untreated” condition, cells were plated on type I collagen but no antibody was added and in the “Uncoated” condition, cells were seeded onto BSA-coated wells containing no type I collagen. Statistics were performed using one-way ANOVA followed by Dunnett's multiple comparisons test. […] Therefore, it is possible that these mAbs bind on an α11β1 domain that keeps the integrin in a low or intermediate affinity state. […] Nine human mAbs were also tested for their ability to inhibit the binding of human CHO-α11 cells to type I collagen.

Entries after “also recorded” stand apart in the source; their conditions may differ.

B1: 1994_01_D12: fully human anti-α11β1 mAb from phage display; HCDR3 SEQ ID NO: 267, LCDR3 SEQ ID NO: 334 (antibody, V domains shown)
VH: QVQLVQSGAEVKKPGSSVKVSCKASGYTFTSYGISWVRQAPGQGLEWMGWISAYNGNTNYAQKLQGRVTMTTNTSTSTAYMELRSLRSDDTAVYYCARVTGITGTTIDPWGQGTLVTVSS
VL: DIQMTQSPSSLSASVGDRVTITCRASQSISSYLNWYRQKPGKAPKLLIYAASSLQSGVPSRFSGSGSGTDFTLTISSLQPEDAATYYCQQYDSQSGTFGQGTKLEIK
B1: the “Inhibition of CHO-hu α11-mediated collagen gel contraction” value in test [1] is reported as “inhibited”.

B2: 24E4G6: rat anti-α11β1 mAb; VH SEQ ID NO: 147, VL SEQ ID NO: 148 (antibody, V domains shown)
VH: MELELSLIFIFSLLKDVQCEVQLVESGGSLVQPGGSLKLSCVASGYTFSNYWMDWVRQSPGKSLEWIGEINTDGRRTNYAPSIKDRFTISRDNAKSTLYLQMSNVKSDDTAIYYCTILRVYPHYFDYWGQGVMVTVSS
VL: MMSPAQFLFLLMLWIQEARGDVVMTQTPPSLSVAIGQSVSISCKSSQSLVYSDGETYLHWFLQSPGRSPKRLIYHVSNLGSGVPDRFSGTGSLTDFTLRISRVEAEDLGVYYCAQTTHFPPTFGAGTKLELK
For B2, the “Binding to the I domain of α11β1” value in test [2] is “did not bind to the I-domain”.

B3: 8-I14: mouse anti-α11β1 mAb; VH SEQ ID NO: 109, VL SEQ ID NO: 110 (antibody, V domains shown)
VH: EVQLQQSGPELVKPGASVKKSCKASGYTFTDYYMHWVKQKPGQGLEWIGKIYPGSGNTHYNEKFKGKATLTADKSSSTAYMQLSSLTSEDSAVYFCATNYYGYRAMNYWGQGSSVTVSS
VL: DIHLTQSPSSLSASLGERISLTCRASQDIYISLNWFQQKPDGTIKLLIYGTSSLDSGVPKRFSGSRSGSDYSLTISSLESEDFADYYCLQYASSPYTFGGGTKLEIK
With B3, the “Inhibition of CHO-hu α11-mediated collagen gel contraction” value in test [1] was “inhibited”.

B4: 8H8E9: rat anti-α11β1 mAb; VH SEQ ID NO: 149, VL SEQ ID NO: 150 (antibody, V domains shown)
VH: MAVLVLLLCLVTFPSCALSQVQLKESGPGLVQPSQTLSLTCTVSGFSLTSNSVSWVRQAPGKGLEWMGAIWSGGSTDYNSALKSRLSISRDTSKSQVFLKMNSLQTEDTAIYFCTRSHWEPFDYWGQGVMVTVSS
VL: MESQTQALISLLLWVYGTCGDIVMTQSPFSLAVSEGEMVTINCKSSQGLLSSGNQKNYLAWYQQRPGQSPKLLIYYASTRQSGVPDRFIGGGSGTDFTLTISDVQAEDLADYYCLQHYSYPPTFGSGTKLEIK
As for B4, the “Binding to the I domain of α11β1” value in test [2] is given as “medium”.

B5: 6E5C11: rat anti-α11β1 mAb; VH SEQ ID NO: 151, VL SEQ ID NO: 152 (antibody, V domains shown)
VH: MAVLVLLLCLVTFPSCALSQVQLRESGPGLVQPSQTLSLTCTVSGFSLTSNSVTWVRQPPGKGLEWMGAIWSDGSTDYNSTLKSRLSISRDTSKSQVFLKMSSLQTEDTAIYFCTRSHWEPFDYWGQGVMVTVSS
VL: MESQTQALISLLLWVYGTCGDIVMTQSPLSLAVSEGETVTMNCKSSQSLFSSGNQKNYLAWYQQKPGQSPKLLIYYASTRQSGVPDRFIGSGSGTDFTLTISDVQTEDLADYYCLQHYNYPPTFGSGTKLEIK
As for B5, the “Binding to the I domain of α11β1” value in test [2] is listed as “low”.

B6: 9-E16: mouse anti-α11β1 mAb; VH SEQ ID NO: 111, VL SEQ ID NO: 112 (antibody, V domains shown)
VH: EVQLQQSGPELVKPGASVKISCKASGYTFTDYYMHWVKQKPGQGLEWIGEIYPGSGNPYYNEKFKGKATLTADKSSSSAYMQLSSLTSEDSAVYFCARTSYGRVGTGFAYWGQGTLVTVSA
VL: NFVMTQTPLSLPVSLGDQASISCRSSQSLLHSNGNTYLHWYLQKPGQSPKLLIYKVSNRFSGVPDRFSGSGSGTDFTLKINRVETEDLGIYFCSQSSHVPTFGAGTKLELK
B6: in test [3], the “Inhibition of cell adhesion to type I collagen” value was “decrease cell adhesion to collagen”. In addition, the “Inhibition of CHO-hu α11-mediated collagen gel contraction” value in test [1] was “inhibited”. Further, the “Binding to the I domain of α11β1” value in test [2] was “I-domain binders; also recorded: bound the I domain”.

Source of the values: US20240317865A1, “ANTIBODIES AGAINST INTEGRIN ALPHA 11 BETA 1” (MOMENTA PHARMACEUTICALS, INC., priority 2020, published 2024).
